These results are taken from PMC9162458 (2022).

B1: LiBRC1.2 (LiBRC1 with extended termini, GB1 fusion) (domain or fragment)
chain: LVPTLFSTASGKPVTVRRESLQKVAERLGDLAAPDME
modifications: not fully specified (N-terminus); also: GB1 fusion
B2: GB1-LiBRC1-His8 (BRC repeat 1 of Leishmania infantum BRCA2 fused to GB1) (domain or fragment)
chain: GB1-LVPTLFSTASGKPVTVRRESLQKVAERLGDLAA-His8
B3: LiRAD51^ATPase (Leishmania infantum RAD51 ATPase domain, residues 134–386) (domain or fragment)
chain: EIIMVTTGSREVDKLLGGGIETGSITELFGEFRTGKTQLCHTLCVTCQLPISQGGAEGMALYIDTEGTFRPERLVAVAARYGLDPEDVLANVACARAFNTDHQQQLLLQASAMMAENRFALIVVDSATALYRTDYSGRNELAARQMHLGKFLRSLHNLAEEYGVAVVVTNQVVANVDGSAQMFQADSKKPIGGHIMAHASTTRLSLRKGRGEQRIIKVYDSPCLAEAEAIFGIYDDGVGDARD
B4: GB1-LiBRC2-His8 (BRC repeat 2 of Leishmania infantum BRCA2 fused to GB1) (domain or fragment)
chain: GB1-RVPTLFETGRGKAVTVQKRSLDKAEASMDSLEA-His8
B5: LiBRC1.7 (C-terminal truncation of LiBRC1, residues up to Arg134 removed, GB1 fusion) (domain or fragment)
chain: LVPTLFSTASGKPVTVRRESLQKVAE
modifications: not fully specified (N-terminus); also: GB1 fusion
B6: LiBRC1 free peptide (peptide)
chain: GSLVPTLFSTASGKPVTVRRESLQKVAERLGDLAA
B7: LiBRC1.9 (C-terminal truncation of LiBRC1, GB1 fusion) (domain or fragment)
chain: LVPTLFSTASGKPVTVRRESLQKV
modifications: not fully specified (N-terminus, C-terminus); also: GB1 fusion
B8: LiBRC1.11 (C-terminal truncation of LiBRC1 up until Gln129, GB1 fusion) (domain or fragment)
chain: LVPTLFSTASGKPVTVRRESLQ
modifications: not fully specified (N-terminus); also: GB1 fusion
B9: LiBRC1.8 (C-terminal truncation of LiBRC1, Glu133 also removed, GB1 fusion) (domain or fragment)
chain: LVPTLFSTASGKPVTVRRESLQKVA
modifications: not fully specified (N-terminus); also: GB1 fusion
B10: LiBRC1.10 (C-terminal truncation of LiBRC1, Val131 also removed, GB1 fusion) (domain or fragment)
chain: LVPTLFSTASGKPVTVRRESLQK
modifications: not fully specified (N-terminus); also: GB1 fusion
B11: LiBRC1.3 (LiBRC1 with extended termini, GB1 fusion) (domain or fragment)
chain: AAAPPLVPTLFSTASGKPVTVRRESLQKVAERLGDLAA
modifications: not fully specified (N-terminus); also: GB1 fusion

Assay [1] has as its target B3. Nature of the assay: FP.
The target in assay [2] is B3. As to the kind of experiment: FP.
The next assay has as its target LiBRC1.6. As to the kind of experiment: FP.
The target of the next assay is LiBRC1.5. As to the kind of experiment: FP.
The next assay deals with LiBRC1.12. Nature of the assay: FP.
The next assay deals with LiBRC1.4. As to the kind of experiment: FP.
The target of assay [3] is B3. As to the kind of experiment: ITC. For orientation: ITC needs no label: the signal is the heat of the interaction.
In assay [4] the target is B3. As to the kind of experiment: FP.

Read-outs that look alike come from different tables or passages of the source. Ends that are not written are not given here.

What is called IC50 is the midpoint of a concentration-inhibition curve. On to B1, for which, in assay [1], the IC50 came to 1.2 µM. For the molecule B2, half-maximal inhibition in assay [2] (IC50) was put at 1.57 µM. One may read the Kd as the equilibrium constant for the complex coming apart. A higher Kd goes with a looser complex. Turning to B3, the Kd with LiBRC1.6 was 1.09 µM; with LiBRC1.5, 0.38 µM; with LiBRC1.12, greater than 124 µM; with LiBRC1.4, 0.41 µM. Regarding B4, the IC50 in assay [2] is 55 µM. Turning to B5, half-maximal inhibition in assay [1] (IC50) required 1.99 µM.

B6 came in with a Ka in assay [3] of 1.54e+06 M⁻¹. B7 registered a Kd in assay [4] of 2.63 µM. Further, in assay [1], the IC50 amounted to 11 µM.

Regarding B8, the IC50 in assay [1] came out at 36.5 µM. In the case of B9, the IC50 in assay [1] worked out at 8.8 µM. Still for that read-out and setting: the figure for B10 is 41 µM; for B11 it is 1.67 µM.
